Test: soluble on expression in E. coli; label from the status in PepcDB or PDB records

Sequence | soluble on expression in E. coli
MGSDKIHHHHHHMKAKHTDLEKLEQLYKESGNQLVVLYGRRGCQKEELIKEFCDGKKFFYYRCRQASPEHQLEMMGEEISRQYKVSLSRQTYEEYFARIKSGDPSKLVVIIDEAQFVAKRDTSFMEAVAKLKKHKLYPGPVLIILATSSTVWATQEASEQFKGAEMKLESLNFLEVVRHFESLPVAEIVRIYGAIGGVPAYLDKWDAAKSFKENICRLVLTPSGALYGEADAVISSELRELSAYSTILAAIARGENKLNDIFHATGFSRAKISVYLKNLATFNIVEKVVSFETGGWENAKKGVYQIKDTFVNFWFKFVYPNMSNLYLLSPEEFYDTYIEKELDAYLERYFREVCTEYLLILNQMGQLPFTIKRVGTWIGKTGRIDIVAQSEDRRSIIGFCNWDKPMMTMDMCENMAMAMDQARLTSDDYYLFSATDFEPALQSYVVRDPRFKLINMNEL | not soluble
MNYVPDTSVIVDGRFTAFISEREGSNVILPEAMLSEIEHQANEGRAIGFAALEELKKLRKMESEGKISIEIEGERPKEWQIKRAKSGEIDEMIRQVAFQYDATLVTGDIIQRDVAIVKGITVEYLSPPEKIIKNIEE | not soluble
MNRPSGRAADQLRPIRITRHYTKHAEGSVLVEFGDTKVICTVSAESGVPRFLKGQGQGWLTAEYGMLPRSTGERNQREASRGKQGGRTLEIQRLIGRSLRAALDLSKLGENTLYIDCDVIQADGGTRTASITGATVALIDALAVLKKRGALKGNPLKQMVAAVSVGIYQGVPVLDLDYLEDSAAETDLNVVMTDAGGFIEVQGTAEGAPFRPAELNAMLELAQQGMQELFELQRAALAE | soluble
MGRKEMLQNGVQQVFYEEEWYPPISEAVKNLTVEQACWQPEGAASNTIWENVNHLLIFKERLLSRLHEDDTFVAPQNNDETFIQGGPNDDAAWQQTVKRTLQVHDALQSSLTALQEAELDQLSPSLPVWQQYMNILLHDAYHTGQIIQLRKLQGSWPTHRSYL | not soluble
MGSDKIHHHHHHMSIVEEQAQAGAASTSGSLLDDIMAQARISPVDEGYSVAKQGIAALVANILDSGNAAEPVNKALVDSMIVELDKKLSKQIDVILHAKELQELESSWRSLKLLIDRTDFRENIKLLVLHATKEELLEDFEFAPEISQSGFYKHVYSSGYGQFGGQPIGGVIGDYAMTQSSPDIKLMQYVSAVGAMAHAPFISSVAPTFFGVDRFTDLPSIKDLKSVFEGPAYTKWRSLRESEDGRYLGLTAPRFLARLPYDPVENPIKGFNYKEDISTDHEHYLWGNTAYLMGTALTDSFAKYRWCPNIIGPQSGGAITDLPVHVYQAMGQLQAKIPTEVLITDRREYEMAEEGFITLTMRKDSDNAAFFSANSVQKPKVFPNTKEGKEAETNYKLGTQLPYMFIINRLAHYIKVLQREQIGSWKERQDLERELNTWIKQYIADQENPPADVRSRRPLRAAQIKVLDVEGEPGWYQVTMSVRPHFKYMGANFELSLVGRLDKE | not soluble
MRCPWLIRVGVDIGGTFTDLIVFDEGSGRLESLKVLTTPREPWVGVIRALEEASVDIEGVDVVIHATTLGTNMFLGQEGLEPPSAVLITNRGFRDVLEIGRQNRPELYNLYFTRPKPLVPRDRRLVVKGRIDARGNVVEDIDRGEVARLAKEWCGRADVFIVSMLNSHINPVHEDEIGSIITREC | not soluble
MGSDKIHHHHHHMKRNESKYKQVVNHVIDGINNGSYKKGDWILSINEFRKNYNLSRDTVFAGLSELKSKGIIDSTPGVGYYIATTRIAQKLNIFLLFNEFNEFKEDLYNSFISSIRKTANVDLYFHNYNRKVFETLINEANYKYTTYILMPGKFTNIAPLLESLSGRVFLLDHFHPELAGKYSSVAQNFEKDTYEALVYGLPHLKKYDHIIMVQKEEKEPIERYNGLCAFCEEYHFTHEYTDSVRNREIRQGETFMVVNDRDLVDLLKQAQLQNFAPGKDFGIISYNDTPLKEILAGGITTLSTDFKQMGQTMASLITQKEIKTIENPWKLDIRNSL | not soluble
MIGGGIGISFRNEFFNPQTPVNIPVQGFSNGARLRLVLLPTSADSRFHINLRTPDDIVLHFNARFDEGAVVNNSTSGGGWQSEDRHANPFQQNKIYTLEFVSNGGIISIFVNGAHFADFVERTPSHGVHLIEIEGGVHVHSAHVSH | soluble
MKGMRGPGESRDTAMAVEQDIFDAVVMADERFHGEGYQEGYEEGSSLGIVEGKRYGMVHGAKIGSEIGCYRGFALAWKCLLHSGAGEKDSRKMKVVEALIALLQDFPYDDPTYEKLHEDLDRIRGKFRQLCSLLNVQPDFKVTPGGSGLAF | soluble
MGSDKIHHHHHHMEREKVELFKEVLKKLHKGEDVESLKKQFGELLSQIPPFEIPVIEQELLKSGEIDVRDIIKMCDLHVEFFRGAVSEAGREIEKLPNGHPLRTLYEENKQILKDAEALSLLASSMFSLPKDDPRRKQFYEKLVQHVSELHRIGLTHYTREEMLIFPYIERRGITAVPTVLWSKHDETRLKIRLLLNLLKKEESDERLKEEALELSRMLSDMVFRENNILYPTLKVLLTEGEWKAIKMLEKDIGYYKIEVTEEWETPEKPLLPHRNCLRRPIPFRGLGGSRHVYHLQIQ | not soluble
MKDSSRAELMRKVQETSFACVDMNLYLDNHPDDKNAINTYNSLCNQFAQARYAYENKYGPLTNFGYAPSRCPWQWADQPWPWDREFNYLEHHHHHH | soluble
MIRYMIKESRMELIEENMKHLQDRLKTAKENEMSAKTVRHDFRHHNQNIATMIQKGETNEALHYIEQYNESLDAARTKEFCSHVTVNAILSSFYIKAQNDGICISIEADTQEGTNISDMDFVAILSNILENAVNGCKECGAHGKINVNIRTVSDKTVIVCSNSCKPGLVIENNMIKHRGIGIESMLTAARKYDGDISYRLENDVLTLCVILKK | not soluble
MEEVKDDKTYKGFVDRLTLGITRVLENLPGVLDVRFVEKAPAEKRCLLSWEQKNNCALPEDLRDFYLTTDGFMLAWNSKLENEVVPVGCMMINNVAQLRPLIQSNVYCLPNAPTLADLDFDDDIDGSDGPEKPHFDLRSRIFELDSCNGNGKVCLVYKSCSPGVMAQQCEVWFLDRSLFWHYLTPSFTAYYRLMITHLGLPEWQYNFTPYGPSPQAKQWAALYQPLTFHSDPHLDTSSEPFLNKLDPTKAFRGKAKPPTPKKKQPAQVPASGTGTAKGQGLSGRHSVAKR | soluble
MSLINARLIAFEDQWVPALNAPLKQAILADSQDAQLAAAMTYSVLAGGKRLRPLLTVATMQSLGVTFVPERHWRPVMALELLHTYSLIHDDLPAMDNDALRRGEPTNHVKFGAGMATLAGDGLLTLAFQWLTATDLPATMQAALVQALATAAGPSGMVAGQAKDIQSEHVNLPLSQLRVLHKEKTGALLHYAVQAGLILGQAPEAQWPAYLQFADAFGLAFQIYDDILDVVSSPAEMGKATQKDADEAKNTYPGKLGLIGANQALIDTIHSGQAALQGLPTSTQRDDLAAFFSYFDTERVNEGHHHHHH | soluble
MQLIPFEIPGILVGRFEKCSDNKREDERQRISLLLRRVFPHDTPQIGHLPSGKPILDSAHNISISHTGSYGAIYVTPSSLIPGIDIEMLSDRALRVAPRFMNEREYEWLMSADEARRRLLATIIWSAKETAYKIFNPSDASLKRFDVALPFELPSENTLFSFELIYSDSCTGDIHIPVQALCTGEFILTCACHCSHSR | not soluble
MSLTYLNHILVIEDDLDAAESLSDMLSIDGFQITTTASVQDAMELLESQRFGVILTDRHLPDGLIEHRLQEILEVSSKTPVIVVTGYSDLQAVILAFRQGISDYVIKPIIPEDLIQTVRRILERRVLEQHLQIEHAFAERIQSTAEAIILVIDFDGRVIHFNRFFTELTGWAQGDLIGENWFDRCIYPEDRDRLINVCDTMSRTDRYRGCTNRIRCKNGEAREIRWSNSKWSEADGGQQFILAIGIDVSDLAEATQRAVRAERLAAIGETVAALAHESRNAIQRINAASEVLAINIRGNVDSEEELSVVQRAASDLSTLLESVRAFAAPIQAKLECADLREIWRRSWDDLECKRSGRDVELVENATSCLHDVKVDVCRMEQLFRNLFLNALEASEGPVRIEIDCECNDEMVCLKVTDDGPGLTAEQSAHLFEPFYTTKPTGTGLGMPICQRIVEAHGGTIAAGNHLNGTEVAICVPRVKAAVLVSEGHHHHHH | soluble
MALTTRRRALTTLGAALTGAVALPAGTALASQGGHGPRPLWRAHAHNDYEHPRPLLDALDHRFGSVEADIYLVGGQLLVAHDPEDLDPSRTLESLYLDPLAARVRAHHGRVYRRDRGSLQLLIDIKTEGEATYLELDRRLRRYKNLFTSYAHGRVFPGAVTAVVSGDRAARAPMAAQRSRRAFYDGRLTDLGTVAPASFVPLISDNWTLNFTWQGVGTFPAAERRRLRDIVGAAHARGQRVRFWATPDVAGPARDAVWAELLAAGVDHLNTDDLAGIEAFLDAHRDALEHHHHHH | soluble
GSHMIASLSDSVSNAREERMALRQEQEQLQSRIQSLMQRAPVWLAAQNSLNQLSEQCGEEFTSSQDVTEYLQQLLEREREAIVERDEVGARKNAVDEEIERLSQPGGSEDQRLNALAERFGGVLLSEIYDDVSLEDAPYFSALYGPSRHAIVVPDLSQVTEHLEGLTDCPEDLYLIEGDPQSFDDSVFSVDELEKAVVVKIADRQWRYSRFPEVPLFGRAARESRIESLHAEREVLSERFATLSFDVQKTQRLHQAFSRFIGSHLAVAFESDPEAEIRQLNSRRVELERALSNHENDNQQQR | soluble
MIKKWLSVALISTAAMMPHTTFASDTLLQKAQQENRQQQTHNASRESGFKKTEQELQAIKNKLVAERAALQAEADTLSVTFSENEAELAQLEEKLRLETGSLGELFGVVRQNAKELESELKHAVTGVDANSYQKDIEAIVAAKSLPTLKQLQAMWRSMEEQVTASGELAKVSFTLLDGEGKEQTVNGVRLGAMALLDDNGYVKWNGQRGDAVNYLRQPENGPTASAFTNGELDSLVIDPSRGILLEQLANSPTLKDRLNAGGVVGQ | not soluble
SFRDCAEVFKSGHTTNGIYTLTFPNSTEEIKAYCDMEAGGGGWTIIQRREDGSVDFQRTWKEYKVGFGNPSGEYWLGNEFVSQLTNQQRYVLKIHLKDWEGNEAYSLYEHFYLSSEELNYRIHLKGLTGTAGKISSISQPGNDFSTKDGDNDKCICKCSQMLTGGWWFDACGPSNLNGMYYPQRQNTNKANGIKWAAWKGSGYSLKATTMMIRPADF | soluble
MTNRLILFDFDETYYKHRTNQADIPYLKEMKSLLQNITAKNNVITAILTGSTIESVLQKMSKVNMSYKPQHIFSDLSSKMFTWNNCEYIESDEYKNEVLIEPFLLEDILDILKHVSSKHKVEFIPQRIFRENETLYNFYFYSSGDTHLDKTILEDLSQYSKTRDYTMTFNRCNPLAGDPENAYDINFTPKNAGKLYATKILMNKYGVPKELIIGFGDSGNDEAFLSYLDHAMIMSNSQDEEMKSKFKNTKYPYYKGIYTHVREFIEYENV | not soluble
MSEAETGEPNGFRSCYDKLRKAVGNIPMDASKSTKLHNLSSRKISEILPNLYLSGRTVSQNSELLKEKNITTVINVSDREVVNYKNNQKFIKNYRFYAMSDTASAKFDGIIEEAVRIIHDSRSKEEGVLVHCFLGVSRSATLVAFYLISALSINWRDAVDFIHHRRFSANPNFGFLHQLKVYSTTKAKEFRNQLISERCLRMRESDKDIIKKYLPLAVFEL | not soluble

— the DeepSol protein solubility set
